Experimental data published in patent publication US20210324069A1 (PROGASTRINE ET CANCERS S R L, published 2021).

T1: human progastrin (human)
T1 construct: 80-residue progastrin; also called hPG; PG
T1 chain: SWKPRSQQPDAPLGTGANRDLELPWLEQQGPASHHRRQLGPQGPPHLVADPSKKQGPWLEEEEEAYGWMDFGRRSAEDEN

B1: mAb13 (antibody, V domains shown)
VH: EVQLVESGGGLVQPGGSLKLSCAASGFIFSSYGMSWVRQSPDRRLELVASINTFGDRTYYPDSVKGRFTISRDNAKNTLYLQMTSLKSEDTAIYYCARGTGTYWGQGTTLTVSS
VL: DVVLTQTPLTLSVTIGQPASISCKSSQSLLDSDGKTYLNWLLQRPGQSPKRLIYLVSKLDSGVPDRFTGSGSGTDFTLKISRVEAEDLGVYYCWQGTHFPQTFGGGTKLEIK
notes: Murine monoclonal antibody from a hybridoma; also called hybridoma 2C6C3C7
B2: mAb16 (antibody, V domains shown)
VH: QVQLQQSGAELVKPGASVKLSCKASGYTFTSYYMYWVKQRPGQGLEWIGEINPSNGGTNFNEKFKSKATLTVDKSSSTAYMQLSSLTSEDSAVYYCTRGGYYPFDYWGQGTTLTVSS
VL: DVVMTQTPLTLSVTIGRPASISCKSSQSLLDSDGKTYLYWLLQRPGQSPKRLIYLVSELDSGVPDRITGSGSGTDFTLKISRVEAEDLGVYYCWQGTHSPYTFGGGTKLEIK
notes: Murine monoclonal antibody from a hybridoma; also called hybridoma 1E9D9B6
B3: mAb19 (antibody, V domains shown)
VH: DVQLQESGPGLVKPSQSLSLTCTVTGYSITSDYAWNWIRQFPGNKLEWMGYISFSGYTSYNPSLKSRISVTRDTSRNQFFLQLTSVTTEDTATYYCAREVNYGDSYHFDYWGQGTIVTVSS
VL: QLALTQSSSASFSLGASAKLTCTLSSQHRTYTIEWYQQQSLKPPKYVMEVKKDGSHSTGHGIPDRFSGSSSGADRYLSISNIQPEDEAIYICGVGDAIKGQSVFVFGGGTKVTVL
notes: Murine monoclonal antibody from a hybridoma; also called hybridoma 1B3B4F11
B4: mAb4 (antibody, V domains shown)
VH: QVQLQQSGAELMKPGASVKISCKATGYTFSSSWIEWLKQRPGHGLEWIGEFLPGSGSTDYNEKFKGKATFTADTSSDTAYMLLSSLTSEDSAVYYCATDGNYDWFAYWGQGTLVTVSA
VL: DLVMTQTPLSLPVSLGDQASISCRSSQSLVHSSGVTYLHWYLQKPGQSPKLLIYKVSNRFSGVPDRFSGSGSGTDFTLKISRVEAEDLGVYFCSQSTHVPPTFGSGTKLEIK
notes: Murine monoclonal antibody from a hybridoma; also called hybridoma 20D2C3G2
B5: mAb3 (antibody, V domains shown)
VH: EVQLQQSGTVLARPGASVKMSCKASGYIFTSYWVHWVKQRPGQGLEWIGGFYPGNSDSRYNQKFKGKATLTAVTSASTAYMDLSSLTNEDSAVYFCTRRDSPQYWGQGTTLTVSS
VL: DVLMTQTPLSLPVSLGDQASISCRSSQSIVHSNGNTYLEWYLQKPGQSPKLLIYKVSNRFSGVPDRFSGSGSGTDFTLKISRLEAEDLGVYYCFQGSHVPFTFGGGTKLEIK
notes: Murine monoclonal antibody from a hybridoma; also called hybridoma 6B5B11C10

Biological target: T1, human progastrin
Assay: epitope mapping (no details given)

Binder	binding result
B1	binds
B2	binds
B3	binds
B4	binds
B5	binds
